The values below are quoted from earlier work in article PMC11121562.

As usually defined, the Kd is a measure of binding affinity in units of concentration.

The target of this data set is Cyclin C (Homo sapiens) (UniProt P24863).
Sequence of UniProt P24863 (P24863 whole entry): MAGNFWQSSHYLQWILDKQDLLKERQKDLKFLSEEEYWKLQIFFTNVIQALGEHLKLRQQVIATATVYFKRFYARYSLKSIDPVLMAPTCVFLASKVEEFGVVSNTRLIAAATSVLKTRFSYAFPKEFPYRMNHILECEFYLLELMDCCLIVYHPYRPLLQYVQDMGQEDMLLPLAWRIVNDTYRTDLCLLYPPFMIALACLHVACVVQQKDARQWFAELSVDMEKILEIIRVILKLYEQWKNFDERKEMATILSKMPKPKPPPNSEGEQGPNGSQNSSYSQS

As to CDK8 (from UniProt P49336), the Kd is 7.05 nM.
